Data published in paper PMC7337067, “Cryo-electron microscopic and X-ray crystallographic analysis of the light-driven proton pump proteorhodopsin reveals a pentameric assembly” (Journal of Structural Biology: X, 2020).

Molecular target: the molecule itself
Assay: crystal structure; 3D crystals of purified GPR, 50 mM MES pH 6, 25 mM MnCl2, 30% PEG 400; anisotropic diffraction to 4.44 Å; molecular replacement with pentameric HOT75BPR (PDB 4KLY); no atomic model built

B1: green-light absorbing proteorhodopsin (GPR), untagged (natural protein, γ-proteobacterium)
chain: MAGGGDLDASDYTGVSFWLVTAALLASTVFFFVERDRVSAKWKTSLTVSGLVTGIAFWHYMYMRGVWIETGDSPTVFRYIDWLLTVPLLICEFYLILAAATNVAGSLFKKLLVGSLVMLVFGYMGEAGIMAAWPAFIIGCLAWVYMIYELWAGEGKSACNTASPAVQSAYNTMMYIIIFGWAIYPVGYFTGYLMGDGGSALNLNLIYNLADFVNKILFGLIIWNVAVKESSNA
modifications: all-trans retinal covalently linked via a Schiff base to a conserved lysine
notes: N-terminal methionine added to the construct; theoretical MW of the monomer 25.5 kDa; Stop codon placed before the HRV 3C site and decahistidine-tag of pZUDF21, so no tag on the protein; Pentamer by crystallography and cryo-EM; also called untagged GPR; tag-free GPR; source: E. coli BL21(DE3) Rosetta2 (pZUDF21stop); purified from Cymal-5 solubilized membranes (Q Sepharose IEC, Superdex 200 SEC); …
  stoichiometry N: 5
